# Earlier results as cited in patent US12305200B2, “Methods and compositions for vault nanoparticle immobilization of therapeutic molecules and for vault targeting” (AUKERA, INC., priority 2017, dated 2025).
# Biological target: GRP-R (Homo sapiens, UniProt P30550)
# Settings: Accardo et al., EJNMMI Research 2016
# Sequence of GRP-R (P30550 whole entry): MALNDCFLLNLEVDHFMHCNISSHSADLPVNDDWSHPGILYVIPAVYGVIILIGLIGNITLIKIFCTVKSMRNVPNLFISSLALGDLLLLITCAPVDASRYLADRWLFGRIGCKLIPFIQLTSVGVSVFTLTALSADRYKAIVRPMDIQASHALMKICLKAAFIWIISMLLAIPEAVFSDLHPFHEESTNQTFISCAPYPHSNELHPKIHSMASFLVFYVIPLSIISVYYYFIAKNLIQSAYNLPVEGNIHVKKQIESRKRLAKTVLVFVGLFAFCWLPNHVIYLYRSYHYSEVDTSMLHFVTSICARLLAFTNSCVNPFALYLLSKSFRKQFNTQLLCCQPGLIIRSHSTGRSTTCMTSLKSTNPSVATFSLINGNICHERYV
substance,measurement,value
Gin-Trp-Ala-Val-Gly-His-Leu-Met (SEQ ID NO.: 3)-NH2 [8-amino acid peptide of the ligand GRP],affinity for the GRP-R,has been found to have affinity
